What was measured:
Assay type in all cases: cell-based
HMGB2 = molecular target: T1, HMGB2 (Homo sapiens, UniProt P26583); experiment: Salt fractionation of nuclei, western blot for HMGB2; conditions: upon protein VII expression
T1 construct: endogenous in cells; host or cells: THP-1 (PMA-differentiated)
T1 sequence (P26583 1-209): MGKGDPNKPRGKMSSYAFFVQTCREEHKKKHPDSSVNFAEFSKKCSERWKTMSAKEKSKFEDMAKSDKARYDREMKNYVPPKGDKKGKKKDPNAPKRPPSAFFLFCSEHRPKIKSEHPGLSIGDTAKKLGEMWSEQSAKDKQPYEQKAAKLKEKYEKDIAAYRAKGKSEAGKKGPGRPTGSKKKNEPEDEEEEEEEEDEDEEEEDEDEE
Experimental: Salt fractionation of nuclei was adapted from established protocols (Zaret, K. (2005) Micrococcal nuclease analysis of chromatin structure. Curr. Protoc. Mol., Biol. Chapter 21, Unit 21.1; Teves et al. (2012) Methods Mol. Biol., 833:421-432). Briefly, 2-4×10^7 cells were collected and resuspended in 2 mL of ice-cold buffer I (0.32 M sucrose, 60 mM KCl, 15 mM NaCl, 5 mM MgCl2, 0.1 mM EGTA, 15 mM Tris, pH 7.5, 0.5 mM DTT, 0.1 mM PMSF and protease inhibitor cocktail from Roche). To dissolve the plasma membrane, 2 mL ice-cold buffer I supplemented with 0.1% IGEPAL were added and samples were incubated on ice for 10 minutes. The 4 mL of nuclei was layered on 8 mL of ice-cold buffer II (1.2 M sucrose, 60 mM KCl, 15 mM NaCl, 5 mM MgCl2, 0.1 mM EGTA, 15 mM Tris, pH 7.5, 0.5 mM DTT, 0.1 mM PMSF and protease inhibitor cocktail from Roche) and centrifuged for 20 minutes at 10,000×g and 4° C. The pelleted nuclei were resuspended in 400 μL buffer III (10 mM Tris pH 7.4, 2 mM MgCl2, 0.1 mM PMSF) supplemented with 5 mM CaCl2 and the DNA was digested to mononucleosomes by addition of 1 unit of MNase (Sigma-Aldrich, N3755). […] The final pellet was resuspended in 400 μL ddH2O and all samples were analyzed together by western blot. An aliquot of each supernatant was set aside for DNA purification using a PCR purification kit (Qiagen) and analyzed by agarose gel electrophoresis. […]

cellular chromatin = experiment: Chromatin appearance in inducible cell lines (immunofluorescence, DAPI); conditions: inducible expression
From the text: Primary small airway epithelial cells (SAECs), U2OS, HeLa, 293, THP-1 and A549 cells were obtained from the American Tissue Culture Collection (ATCC) and grown according to the provider's instructions. Acceptor cells for generation of inducible cell lines were used as reported (Khandelia et al. (2011) Proc. Natl. Acad. Sci., 108:12799-12804). Protein VII, preVII and V were cloned from genomic DNA isolated from HeLa cells infected with adenovirus type 5 and inserted into the inducible plasmid cassette with a C-terminal HA tag using restriction enzymes BsrGI and AgeI. Positive clones were selected in DH5a cells, sequenced, and transfected into A549, U2OS or HeLa acceptor cells along with plasmid expressing the Cre recombinase. Recombined clones were selected by puromycin resistance (1 μg/mL) and induced with doxycycline (0.2 μg/mL) to express the desired protein. Protein expression was verified by immunofluorescence and western blot. All figures shown are after 4 days of induction unless otherwise stated. Protein VII and preVII were also verified by HPLC purification and mass spectrometry analysis. Point mutations were generated by gene synthesis from Genewiz.
Cells were grown on glass coverslips in 24-well plates and either infected or induced with doxycycline (0.2 μg/mL). […]

HMGB1 = molecular target: T2, HMGB1 (Homo sapiens, UniProt P09429); experiment: Precision cut lung slice (PCLS) immunofluorescence; parameters: tissue National Disease Research Interchange (NDRI); host or cells: human precision cut lung slices; conditions: PCLS from human donors
T2 sequence (P09429 1-215): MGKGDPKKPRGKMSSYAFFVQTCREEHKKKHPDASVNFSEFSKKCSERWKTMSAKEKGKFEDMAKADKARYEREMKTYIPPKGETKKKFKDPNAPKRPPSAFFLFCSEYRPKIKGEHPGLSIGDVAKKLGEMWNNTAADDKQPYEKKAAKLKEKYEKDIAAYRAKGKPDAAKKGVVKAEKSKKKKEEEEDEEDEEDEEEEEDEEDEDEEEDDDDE
Experimental: PCLS were obtained and prepared as described (Cooper et al. (2008) J. Allergy Clin. Immunol., 122:734-740; Koziol-White et al. (2011) Expert Rev. Respir. Med., 5:767-777). De-identified human lung tissue from donors was obtained from the National Disease Research Interchange (NDRI), Philadelphia, Pa. Samples were infected with 10^8 pfu of Ad5 per slice or 10^9 GC of rAd VII-GFP for 24 hours. Samples were fixed in 4% PFA at room temperature for 15 minutes and washed three times in PBS. Samples were permiabilized with 0.5% Triton X and washed twice more in PBS. Samples were then incubated with 3% BSA and 0.03% Triton X in PBS for 1 hour to block. Primary antibodies (DBP or HMGB1) were incubated in the same buffer for 1 hour and then samples were washed three times in PBS with 3% BSA, incubated with secondary antibodies and DAPI for 1 hour, and washed three more times. Whole slices were mounted on slides with mounting solution and imaged by confocal microscopy.

B1: protein VII: mature protein VII of human adenovirus type 5 (SEQ ID NO:1), expressed in cells, mostly with C-terminal HA tag (protein)
chain: AKKRSDQHPVRVRGHYRAPWGAHKRGRTGRTTVDDAIDAVVEEARNYTPTPPPVSTVDAAIQTVVRGARRYAKMKRRRRRVARRHRRRPGTAAQRAAAALLNRARRTGRRAAMRAARRLAAGIVTVPPRSRRRAAAAAAAAISAMTQGRRGNVYWVRDSVSGLRVPVRTRPPRN
modifications: C-terminal HA tag; Human adenovirus 5
- Chromatin association of HMGB2 (fractionated nuclei) (HMGB2): Increased chromatin association
- Effect on chromatin appearance (cellular chromatin): altered nuclear DNA into a punctate appearance
- Relocalization of endogenous HMGB1 in lung slices (HMGB1): sufficient to relocalize endogenous HMGB1
